The results in this text go back to patent publication US20080050387A1 (published 2008).

The labels stand for the following.
B1: ARA67/PAT1, full length (585 amino acids) (other)
chain: MAAVELEWIPETLYNTAISAVVDNYIRSRRDIRSLPENIQFDVYYKLYQQGRLCQLGSEFCELEVFAKVLRALDKRHLLHHCFQALMDHGVKVASVLAYSFSRRCSYIAESDAAVKEKAIQVGFVLGGFLSDAGWYSDAEKVFLSCLQLCTLHDEMLHWFRAVECCVRLLHVRNGNCKYHLGEETFKLAQTYMDKLSKHGQQANKAALYGELCALLFAKSHYDEAYKWCIEAMKEITAGLPVKVVVDVLRQASKACVVKREFKKAEQLIKHAVYLARDHFGSKHPKYSDTLLDYGFYLLNVDNICQSVAIYQAALDIRQSVFGGKNIHVATAHEDLAYSSYVHQYSSGKFDNALFHAERAIGIITHILPEDHLLLASSKRVKALILEEIAIDCHNKETEQRLLQEAHDLHLSSLQLAKKAFGEFNVQTAKHYGNLGRLYQSMRKFKEAEEMHIKAIQIKEQLLGQEDYEVALSVGHLASLYNYDMNQYENAEKLYLRSIAIGKKLFGEGYSGLEYDYRGLIKLYNSIGNYEKVFEYHNVLSNWNRLRDRQYSVTDALEDVSTSPQSTEEVVQSFLISQNVEGPSC
notes: Used as GST-ARA67 on beads, as [35S]methionine-labeled ARA67, as GAL4 DBD fusion (pM-ARA67) and as HA-ARA67 (pKH3) in COS-1 cells; also called ARA671-585; GST-ARA67
B7: AR N-terminus, full length ARN (ARN1-556) (receptor)
chain: MEVQLGLGRVYPRPPSKTYRGAFQNLFQSVREVIQNPGPRHPEAASAAPPGASLLLLQQQQQQQQQQQQQQQQQQQQQETSPRQQQQQQGEDGSPQAHRRGPTGYLVLDEEQQPSQPQSALECHPERGCVPEPGAAVAASKGLPQQLPAPPDEDDSAAPSTLSLLGPTFPGLSSCSADLKDILSEASTMQLLQQQQQEAVSEGSSSGRAREASGAPTSSKDNYLGGTSTISDNAKELCKAVSVSMGLGVEALEHLSPGEQLRGDCMYAPLLGVPPAVRPTPCAPLAECKGSLLDDSAGKSTEDTAEYSPFKGGYTKGLEGESLGCSGSAAAGSSGTLELPSTLSLYKSGALDEAAAYQSRDYYNFPLALAGPPPPPPPPHPHARIKLENPLDYGSAWAAAAAQCRYGDLASLHGAGAAGPGSGSPSAAASSSWHTLFTAEEGQLYGPCGGGGGGGGGGGGGGGGGGGGGGGGEAGAVAPYGYTRPPQGLAGQESDFTAPDVWYPGGMVSRVPYPSPTCVKSEMGPWMDSYSGPYGDMRLETARDHVLPIDYYFPPQ

Experiment [1] deals with T1, androgen receptor (AR), full length (human, UniProt P10275 1-920).
T1 construct: also called AR-FL; pCMV-AR
T1 sequence: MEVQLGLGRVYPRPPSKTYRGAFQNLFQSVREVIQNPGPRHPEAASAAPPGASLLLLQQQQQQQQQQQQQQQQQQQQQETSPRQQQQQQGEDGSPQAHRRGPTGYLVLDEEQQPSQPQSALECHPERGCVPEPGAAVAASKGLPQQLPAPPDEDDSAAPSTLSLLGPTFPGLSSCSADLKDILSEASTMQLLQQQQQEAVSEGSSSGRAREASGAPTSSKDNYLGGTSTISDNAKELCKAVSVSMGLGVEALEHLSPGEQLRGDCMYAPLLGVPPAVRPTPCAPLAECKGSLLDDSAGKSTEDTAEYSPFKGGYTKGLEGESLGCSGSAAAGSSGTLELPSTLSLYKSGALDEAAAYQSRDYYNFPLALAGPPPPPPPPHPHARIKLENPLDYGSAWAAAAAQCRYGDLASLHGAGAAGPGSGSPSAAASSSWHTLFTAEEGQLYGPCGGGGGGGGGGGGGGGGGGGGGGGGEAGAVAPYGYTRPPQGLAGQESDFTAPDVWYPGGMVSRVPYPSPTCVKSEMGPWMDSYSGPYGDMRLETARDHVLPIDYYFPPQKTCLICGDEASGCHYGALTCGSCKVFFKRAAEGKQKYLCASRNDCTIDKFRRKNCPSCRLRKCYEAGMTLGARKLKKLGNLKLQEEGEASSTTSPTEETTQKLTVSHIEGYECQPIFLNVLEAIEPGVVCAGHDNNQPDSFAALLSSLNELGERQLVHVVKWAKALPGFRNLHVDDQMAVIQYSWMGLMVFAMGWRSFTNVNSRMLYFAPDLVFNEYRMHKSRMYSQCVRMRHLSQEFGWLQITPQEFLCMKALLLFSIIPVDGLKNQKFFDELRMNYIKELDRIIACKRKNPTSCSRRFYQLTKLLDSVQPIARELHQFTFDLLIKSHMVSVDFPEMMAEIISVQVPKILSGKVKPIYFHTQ
The experiment is described as follows: GST pull-down: GST-ARA67 with 35S-labeled AR, with or without 10 uM DHT.
Procedure: Pulled-down proteins were separated on SDS-PAGE and visualized by autoradiography. […] After transfection cells were treated with or without 10 nM DHT for 24 h before harvesting. 500 μg total cell lysate proteins from each samples were immunoprecipitated with anti-AR antibody for Western blot analysis with anti-AR and anti-HA antibody (Roche).
The immunoprecipitates were analyzed by Western blotting.

Experiment [2] deals with B7. The experiment in a line: GST pull-down: GST-ARA67 fragments with 35S-labeled ARN.
In the next experiment the target is T2, AR DBD-LBD (human, UniProt P10275 557-920).
T2 construct: also called GAL4-DBD-AR-DBD-LBD; GAL4-AR-DBD-LBD
T2 sequence: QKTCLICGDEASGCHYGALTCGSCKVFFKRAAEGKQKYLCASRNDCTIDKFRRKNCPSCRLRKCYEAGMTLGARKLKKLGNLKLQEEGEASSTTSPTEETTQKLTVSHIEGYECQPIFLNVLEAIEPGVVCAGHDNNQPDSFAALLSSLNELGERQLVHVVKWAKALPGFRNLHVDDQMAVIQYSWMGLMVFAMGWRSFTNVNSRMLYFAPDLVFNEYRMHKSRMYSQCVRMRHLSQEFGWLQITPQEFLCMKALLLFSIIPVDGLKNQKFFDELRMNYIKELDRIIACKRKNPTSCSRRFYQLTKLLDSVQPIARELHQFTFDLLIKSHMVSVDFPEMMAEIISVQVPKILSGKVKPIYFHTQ
The experiment in a line: yeast two-hybrid, liquid β-gal assay, bait GAL4 DBD-AR-DBD-LBD.

For experiment [3], the target named is T3, VP16-AR containing the residues 37 to 919 (human, UniProt P10275 37-920).
T3 construct: also called pCMX-VP16-AR; full length AR fused to VP16
T3 sequence: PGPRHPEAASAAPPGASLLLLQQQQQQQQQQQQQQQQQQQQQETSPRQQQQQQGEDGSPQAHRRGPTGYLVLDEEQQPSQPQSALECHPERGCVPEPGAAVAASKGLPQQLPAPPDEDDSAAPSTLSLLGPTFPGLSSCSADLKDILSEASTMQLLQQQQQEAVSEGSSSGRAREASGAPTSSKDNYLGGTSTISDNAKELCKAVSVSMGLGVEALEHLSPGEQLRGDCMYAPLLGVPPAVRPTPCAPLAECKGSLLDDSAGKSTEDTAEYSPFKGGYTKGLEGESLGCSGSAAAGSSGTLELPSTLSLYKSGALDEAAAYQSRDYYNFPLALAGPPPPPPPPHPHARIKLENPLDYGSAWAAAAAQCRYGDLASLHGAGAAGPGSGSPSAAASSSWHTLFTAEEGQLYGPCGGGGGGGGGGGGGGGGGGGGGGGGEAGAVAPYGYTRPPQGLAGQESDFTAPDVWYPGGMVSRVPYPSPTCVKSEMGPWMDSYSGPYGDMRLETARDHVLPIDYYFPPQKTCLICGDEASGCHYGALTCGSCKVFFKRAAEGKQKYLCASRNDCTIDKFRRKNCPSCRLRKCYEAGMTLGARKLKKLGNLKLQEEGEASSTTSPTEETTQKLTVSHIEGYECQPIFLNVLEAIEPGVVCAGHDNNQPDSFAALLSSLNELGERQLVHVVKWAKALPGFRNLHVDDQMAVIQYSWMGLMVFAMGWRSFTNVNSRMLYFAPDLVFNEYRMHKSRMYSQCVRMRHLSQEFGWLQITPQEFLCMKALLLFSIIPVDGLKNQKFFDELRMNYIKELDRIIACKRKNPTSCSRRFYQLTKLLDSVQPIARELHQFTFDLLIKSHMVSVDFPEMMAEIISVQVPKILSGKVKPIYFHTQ
The experiment is described as follows: mammalian two-hybrid in PC-3 cells, GAL4 DBD-N-hRad9 + VP16-AR, 10 nM DHT.

Experiment [4] concerns the target T3, VP16-AR containing the residues 37 to …. The experiment is described as follows: mammalian two-hybrid in PC-3 cells, GAL4 DBD-hRad9 constructs + VP16-AR, 10 nM DHT.
In experiment [5] the target is B1. The experiment in a line: mammalian two-hybrid in H1299 cells, pM-ARA67 + pVP16-ARN, pG5-Luc.

Procedure for AR DBD-LBD: Liquid β-gal assay was performed as described previously.
In order to screen proteins with ligand-dependent interaction with AR, the human AR DBD-LBD was fused with the DBD of GAL4 functioned as bait in yeast two-hybrid screening (FIG. 23A). A pretransformed normal human ovary cDNA library was screened in the presence of 10 nM DHT.

Take B1: in experiment [1], the binding result is on record as “binds”.

B2: ARA67 281-550 (other)
chain: GSKHPKYSDTLLDYGFYLLNVDNICQSVAIYQAALDIRQSVFGGKNIHVATAHEDLAYSSYVHQYSSGKFDNALFHAERAIGIITHILPEDHLLLASSKRVKALILEEIAIDCHNKETEQRLLQEAHDLHLSSLQLAKKAFGEFNVQTAKHYGNLGRLYQSMRKFKEAEEMHIKAIQIKEQLLGQEDYEVALSVGHLASLYNYDMNQYENAEKLYLRSIAIGKKLFGEGYSGLEYDYRGLIKLYNSIGNYEKVFEYHNVLSNWNRLRDRQ
notes: GST fusion on beads
Regarding B2, the binding result in experiment [2] is recorded as “binds”.

B3: GAL4 activation domain alone (other, UniProt P04386 768-881, looked up)
chain: ANFNQSGNIADSSLSFTFTNSSNGPNLITTQTNSQALSQPIASSNVHDNFMNNEITASKIDDGNNSKPLSPGWTDQTAYNAFGITTGMFNTTTMDDVYNYLFDDEDTPPNPKKE
notes: Negative control; also called GAL4-AD
As for B3, the binding result in the experiment with AR DBD-LBD is reported as “no binding”.

B4: PCNA-like domain of hRad9 (N-hRad9, aa 1-270) (other)
chain: MKCLVTGGNVKVLGKAVHSLSRIGDELYLEPLEDGLSLRTVNSSRSAYACFLFAPLFFQQYQAATPGQDLLRCKILMKSFLSVFRSLAMLEKTVEKCCISLNGRSSRLVVQLHCKFGVRKTHNLSFQDCESLQAVFDPASCPHMLRAPARVLGEAVLPFSPALAEVTLGIGRGRRVILRSYHEEEADSTAKAMVTEMCLGEEDFQQLQAQEGVAITFCLKEFRGLLSFAESANLNLSIHFDAPGRPAIFTIKDSLLDGHFVLATLSDTDS
notes: GAL4 DBD fusion (pM) in the two-hybrid assay; Flag-tagged (pCDNA3-Flag) in the AR N/C assay; also called N-terminus of hRad9
Regarding B4, the binding result in experiment [3] is on record as “no binding”.

B5: C-terminus of hRad9 (aa 269-391) (other)
chain: DSHSQDLGSPERHQPVPQLQAHSTPHPDDFANDDIDSYMIAMETTIGNEGSRVLPSISLSPGPQPPKSPGPHSEEEDEAEPSTVPGTPPPKKFRSLFFGSILAPVRSPQGPSPVLAEDSEGEG
notes: GAL4 DBD fusion (pM) in the two-hybrid assay; Flag-tagged (pCDNA3-Flag) in the AR N/C assay; also called C-hRad9; hRad9 C-terminus
Regarding B5, the binding result in experiment [4] is given as “binds”.

B6: ARA67 8-140 (other)
chain: WIPETLYNTAISAVVDNYIRSRRDIRSLPENIQFDVYYKLYQQGRLCQLGSEFCELEVFAKVLRALDKRHLLHHCFQALMDHGVKVASVLAYSFSRRCSYIAESDAAVKEKAIQVGFVLGGFLSDAGWYSDAE
notes: GST fusion on beads
As to B6, the binding result in experiment [2] was “binds”. Regarding B7, in experiment [5], the binding result was “binds”.
